Literature values in PMC2827818.

Target: IFNalpha2 (Homo sapiens) (UniProt P01563)

IFNAR2 ECD (from UniProt P48551)
Kd: 0.01 µM
